# In patent publication US20040229213A1 (INSTITUT PASTEUR, published 2004):
# Biological target: the molecule itself
# Experiment: yeast two-hybrid two-by-two matrix, LacZ and HIS3 reporters
protein,measurement,value
"HCV core protein, full length (strain H) (other, mature; also called capsid protein; full-length capsid) MSTNPKPQRKTKRNTNRRPQDVKFPGGGQIVGGVYLLPRRGPRLGVRATRKTSERSQPRGRRQPIPKARRPEGRTWAQPGYPWPLYGNEGCGWAGWLLSPRGSRPSWGPTDPRRRSRNLGKVIDTLTCGFADLMGYIPLVGAPLGGAARALAHGVRVLEDGVNYATGNLPGCSFSIFLLALLSCLTVPASA",binding result,no binding
